In the assay the target is T1, human serum albumin (human, UniProt P02768 25-609).
T1 construct: mature; Bought purified serum albumin; also called HSA; Human albumin
Kind of assay: SPR, Fab captured; albumin taken as HSA.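 Also: antibody held on a capture surface, albumin injected for 3 min association then dissociation followed, signals corrected using a blank reference flow cell and buffer-only injections.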

A word on the Kd: it is the free concentration of one partner at which half of the binding sites on the other are occupied at equilibrium, for simple one-to-one binding. Low values mean tighter binding, high ones weaker binding. What is called koff is the rate constant with which the complex falls apart. A lower koff goes with slow dissociation. As usually defined, the kon is the second-order rate constant of association. High values mean fast association, low ones slow association.

Procedure: Each assay cycle consisted of firstly capturing the antibody sample using a 1 min injection, before an association phase consisting of a 3 min injection of albumin, after which dissociation was monitored. After each cycle, the capture surface was regenerated with two 1 min injections of 40 mM HCl followed by 30 s of 5 mM NaOH. The flow rates used were 10 μl/min for capture, 30 μl/min for both the association and dissociation phases, and 10 μl/min for regeneration. A blank flow-cell was used for reference subtraction and buffer-blank injections were included to subtract instrument noise and drift.

B1: CA645 gL4gH27 Fab (Fab, V domains shown)
VH: EVQLLESGGGLVQPGGSLRLSCAVSGIDLSNYAINWVRQAPGKGLEWIGIIWGSGTTFYATWAKGRFTISRDNSKNTVYLQMNSLRAEDTAVYYCARTVPGYSTAPYFDLWGQGTLVTVSS
VL: DIQMTQSPSSVSASVGDRVTITCQSSPSVWSNFLSWYQQKPGKAPKLLIYEASKLTSGVPSRFSGSGSGTDFTLTISSLQPEDFATYYCGGGYSSISDTTFGGGTKVEIK
notes: Fab: human gamma1 CH1, human kappa (Km3); Kabat numbering
In turn, B1 came in with a Kd of 1.73 nM, a koff of 8.4e-05 s⁻¹ and a kon of 48300 M⁻¹ s⁻¹.

B2: CA645 gL4gH29 Fab (Fab, V domains shown)
VH: EVQLLESGGGLVQPGGSLRLSCAVSGIDLSNYAINWVRQAPGKGLEWIGIIWSSGTTFYATWAKGRFTISRDNSKNTVYLQMNSLRAEDTAVYYCARTVPGYSTAPYFDLWGQGTLVTVSS
VL: DIQMTQSPSSVSASVGDRVTITCQSSPSVWSNFLSWYQQKPGKAPKLLIYEASKLTSGVPSRFSGSGSGTDFTLTISSLQPEDFATYYCGGGYSSISDTTFGGGTKVEIK
notes: as for B1
B2 showed a Kd of 7.97 nM, an off-rate constant (koff) of 0.00038 s⁻¹ and a kon of 47700 M⁻¹ s⁻¹.

B3: CA645 gL10gH5 Fab (Fab, V domains shown)
VH: EVQLLESGGGLVQPGGSLRLSCAVSGIDLSNYAINWVRQAPGKGLEWIGIIWASGTTFYATWAKGRFTISRDNSKNTVYLQMNSLRAEDTAVYYCARTVPGYSTAPYFDLWGQGTLVTVSS
VL: DIQMTQSPSSVSASVGDRVTITCQSSPAVWSNFLSWYQQKPGKAPKLLIYEASKLTSGVPSRFSGSGSGTDFTLTISSLQPEDFATYYCGGGYSSISDTTFGGGTKVEIK
notes: as for B1
B3 came in with a Kd of 1.03 nM, a koff of 0.000172 s⁻¹ and a kon of 138000 M⁻¹ s⁻¹.

B4: CA645 gL14gH5 Fab (Fab, V domains shown)
VH: EVQLLESGGGLVQPGGSLRLSCAVSGIDLSNYAINWVRQAPGKGLEWIGIIWASGTTFYATWAKGRFTISRDNSKNTVYLQMNSLRAEDTAVYYCARTVPGYSTAPYFDLWGQGTLVTVSS
VL: DIQMTQSPSSVSASVGDRVTITCQSSPLVWSNFLSWYQQKPGKAPKLLIYEASKLTSGVPSRFSGSGSGTDFTLTISSLQPEDFATYYCGGGYSSISDTTFGGGTKVEIK
notes: as for B1
The molecule B4 showed a Kd of 1.51 nM, a koff of 8.7e-05 s⁻¹ and a kon of 57700 M⁻¹ s⁻¹.

B5: CA645 gL4gH44 Fab (Fab, V domains shown)
VH: EVQLLESGGGLVQPGGSLRLSCAVSGIDLSNYAINWVRQAPGKGLEWIGIIWASGTTFYATWAKGRFTISRDNSKNTVYLQMNSLRAEDTAVYYCARTVPLYSTAPYFDLWGQGTLVTVSS
VL: DIQMTQSPSSVSASVGDRVTITCQSSPSVWSNFLSWYQQKPGKAPKLLIYEASKLTSGVPSRFSGSGSGTDFTLTISSLQPEDFATYYCGGGYSSISDTTFGGGTKVEIK
notes: as for B1
B5 registered a Kd of 4.22 nM, a koff of 0.000226 s⁻¹ and a kon of 53500 M⁻¹ s⁻¹.

B6: CA645 gL4gH38 Fab (Fab, V domains shown)
VH: EVQLLESGGGLVQPGGSLRLSCAVSGIDLSNYAINWVRQAPGKGLEWIGIIWASGTTYYATWAKGRFTISRDNSKNTVYLQMNSLRAEDTAVYYCARTVPGYSTAPYFDLWGQGTLVTVSS
VL: DIQMTQSPSSVSASVGDRVTITCQSSPSVWSNFLSWYQQKPGKAPKLLIYEASKLTSGVPSRFSGSGSGTDFTLTISSLQPEDFATYYCGGGYSSISDTTFGGGTKVEIK
notes: as for B1
For the molecule B6, the Kd stood at 12.2 nM, the koff was found to be 0.000581 s⁻¹ and the kon was determined as 47500 M⁻¹ s⁻¹.

B7: CA645 gL4gH28 Fab (Fab, V domains shown)
VH: EVQLLESGGGLVQPGGSLRLSCAVSGIDLSNYAINWVRQAPGKGLEWIGIIWVSGTTFYATWAKGRFTISRDNSKNTVYLQMNSLRAEDTAVYYCARTVPGYSTAPYFDLWGQGTLVTVSS
VL: DIQMTQSPSSVSASVGDRVTITCQSSPSVWSNFLSWYQQKPGKAPKLLIYEASKLTSGVPSRFSGSGSGTDFTLTISSLQPEDFATYYCGGGYSSISDTTFGGGTKVEIK
notes: as for B1
For the molecule B7, the Kd stood at 10.6 nM, the koff is 0.000515 s⁻¹ and the kon was 48500 M⁻¹ s⁻¹.

B8: CA645 gL12gH5 Fab (Fab, V domains shown)
VH: EVQLLESGGGLVQPGGSLRLSCAVSGIDLSNYAINWVRQAPGKGLEWIGIIWASGTTFYATWAKGRFTISRDNSKNTVYLQMNSLRAEDTAVYYCARTVPGYSTAPYFDLWGQGTLVTVSS
VL: DIQMTQSPSSVSASVGDRVTITCQSSPDVWSNFLSWYQQKPGKAPKLLIYEASKLTSGVPSRFSGSGSGTDFTLTISSLQPEDFATYYCGGGYSSISDTTFGGGTKVEIK
notes: as for B1
B8: the Kd came to 1.88 nM, the koff was 0.000104 s⁻¹ and the kon was found to be 55400 M⁻¹ s⁻¹.

B9: CA645 gL4gH39 Fab (Fab, V domains shown)
VH: EVQLLESGGGLVQPGGSLRLSCAVSGIDLSNYAINWVRQAPGKGLEWIGIIWASGTTFYATWAKGRFTISRDNSKNTVYLQMNSLRAEDTAVYYCARTVPIYSTAPYFDLWGQGTLVTVSS
VL: DIQMTQSPSSVSASVGDRVTITCQSSPSVWSNFLSWYQQKPGKAPKLLIYEASKLTSGVPSRFSGSGSGTDFTLTISSLQPEDFATYYCGGGYSSISDTTFGGGTKVEIK
notes: as for B1
Regarding B9, the Kd is 14 nM, the koff came to 0.00075 s⁻¹ and the kon amounted to 53500 M⁻¹ s⁻¹.

B10: CA645 gL4gH40 Fab (Fab, V domains shown)
VH: EVQLLESGGGLVQPGGSLRLSCAVSGIDLSNYAINWVRQAPGKGLEWIGIIWASGTTFYATWAKGRFTISRDNSKNTVYLQMNSLRAEDTAVYYCARTVPTYSTAPYFDLWGQGTLVTVSS
VL: DIQMTQSPSSVSASVGDRVTITCQSSPSVWSNFLSWYQQKPGKAPKLLIYEASKLTSGVPSRFSGSGSGTDFTLTISSLQPEDFATYYCGGGYSSISDTTFGGGTKVEIK
notes: as for B1
Molecule B10 came in with a Kd of 6.4 nM, a dissociation rate constant (koff) of 0.000356 s⁻¹ and a kon of 55600 M⁻¹ s⁻¹.

B11: CA645 gL13gH5 Fab (Fab, V domains shown)
VH: EVQLLESGGGLVQPGGSLRLSCAVSGIDLSNYAINWVRQAPGKGLEWIGIIWASGTTFYATWAKGRFTISRDNSKNTVYLQMNSLRAEDTAVYYCARTVPGYSTAPYFDLWGQGTLVTVSS
VL: DIQMTQSPSSVSASVGDRVTITCQSSPIVWSNFLSWYQQKPGKAPKLLIYEASKLTSGVPSRFSGSGSGTDFTLTISSLQPEDFATYYCGGGYSSISDTTFGGGTKVEIK
notes: as for B1
B11 returned a Kd of 1.88 nM, a koff of 0.000108 s⁻¹ and a kon of 57600 M⁻¹ s⁻¹.

B12: CA645 gL4gH30 Fab (Fab, V domains shown)
VH: EVQLLESGGGLVQPGGSLRLSCAVSGIDLSNYAINWVRQAPGKGLEWIGIIWTSGTTFYATWAKGRFTISRDNSKNTVYLQMNSLRAEDTAVYYCARTVPGYSTAPYFDLWGQGTLVTVSS
VL: DIQMTQSPSSVSASVGDRVTITCQSSPSVWSNFLSWYQQKPGKAPKLLIYEASKLTSGVPSRFSGSGSGTDFTLTISSLQPEDFATYYCGGGYSSISDTTFGGGTKVEIK
notes: as for B1
As for B12, the Kd came out at 23.2 nM, the dissociation rate constant (koff) was 0.00102 s⁻¹ and the kon was determined as 43800 M⁻¹ s⁻¹.

B13: CA645 gL4gH42 Fab (Fab, V domains shown)
VH: EVQLLESGGGLVQPGGSLRLSCAVSGIDLSNYAINWVRQAPGKGLEWIGIIWASGTTFYATWAKGRFTISRDNSKNTVYLQMNSLRAEDTAVYYCARTVPQYSTAPYFDLWGQGTLVTVSS
VL: DIQMTQSPSSVSASVGDRVTITCQSSPSVWSNFLSWYQQKPGKAPKLLIYEASKLTSGVPSRFSGSGSGTDFTLTISSLQPEDFATYYCGGGYSSISDTTFGGGTKVEIK
notes: as for B1
As for B13, the Kd was 4.17 nM, the dissociation rate constant (koff) is 0.000222 s⁻¹ and the kon was 53100 M⁻¹ s⁻¹.

B14: CA645 gL4gH43 Fab (Fab, V domains shown)
VH: EVQLLESGGGLVQPGGSLRLSCAVSGIDLSNYAINWVRQAPGKGLEWIGIIWASGTTFYATWAKGRFTISRDNSKNTVYLQMNSLRAEDTAVYYCARTVPEYSTAPYFDLWGQGTLVTVSS
VL: DIQMTQSPSSVSASVGDRVTITCQSSPSVWSNFLSWYQQKPGKAPKLLIYEASKLTSGVPSRFSGSGSGTDFTLTISSLQPEDFATYYCGGGYSSISDTTFGGGTKVEIK
notes: as for B1
B14 came in with a Kd of 7.39 nM, a koff of 0.000391 s⁻¹ and a kon of 52900 M⁻¹ s⁻¹.

B15: CA645 gL4gH45 Fab (Fab, V domains shown)
VH: EVQLLESGGGLVQPGGSLRLSCAVSGIDLSNYAINWVRQAPGKGLEWIGIIWASGTTFYATWAKGRFTISRDNSKNTVYLQMNSLRAEDTAVYYCARTVPVYSTAPYFDLWGQGTLVTVSS
VL: DIQMTQSPSSVSASVGDRVTITCQSSPSVWSNFLSWYQQKPGKAPKLLIYEASKLTSGVPSRFSGSGSGTDFTLTISSLQPEDFATYYCGGGYSSISDTTFGGGTKVEIK
notes: as for B1
B15: the dissociation constant Kd turned out to be 8.25 nM, the koff came to 0.000444 s⁻¹ and the kon came to 53800 M⁻¹ s⁻¹.

B16: CA645 gL27gH5 Fab (Fab, V domains shown)
VH: EVQLLESGGGLVQPGGSLRLSCAVSGIDLSNYAINWVRQAPGKGLEWIGIIWASGTTFYATWAKGRFTISRDNSKNTVYLQMNSLRAEDTAVYYCARTVPGYSTAPYFDLWGQGTLVTVSS
VL: DIQMTQSPSSVSASVGDRVTITCQSSPSVWSNYLSWYQQKPGKAPKLLIYEASKLTSGVPSRFSGSGSGTDFTLTISSLQPEDFATYYCGGGYSSISDTTFGGGTKVEIK
notes: as for B1
Molecule B16 registered a Kd of 9.44 nM, an off-rate constant (koff) of 0.000586 s⁻¹ and a kon of 62100 M⁻¹ s⁻¹.

B17: CA645 gL34gH5 Fab (Fab, V domains shown)
VH: EVQLLESGGGLVQPGGSLRLSCAVSGIDLSNYAINWVRQAPGKGLEWIGIIWASGTTFYATWAKGRFTISRDNSKNTVYLQMNSLRAEDTAVYYCARTVPGYSTAPYFDLWGQGTLVTVSS
VL: DIQMTQSPSSVSASVGDRVTITCQSSPSVWSNFLSWYQQKPGKAPKLLIYEASKLTSGVPSRFSGSGSGTDFTLTISSLQPEDFATYYCGGGYTSISDTTFGGGTKVEIK
notes: as for B1
On to B17, for which the Kd stood at 3.41 nM, the dissociation rate constant (koff) was 0.00019 s⁻¹ and the kon came out at 55800 M⁻¹ s⁻¹.

B18: CA645 gL4gH41 Fab (Fab, V domains shown)
VH: EVQLLESGGGLVQPGGSLRLSCAVSGIDLSNYAINWVRQAPGKGLEWIGIIWASGTTFYATWAKGRFTISRDNSKNTVYLQMNSLRAEDTAVYYCARTVPDYSTAPYFDLWGQGTLVTVSS
VL: DIQMTQSPSSVSASVGDRVTITCQSSPSVWSNFLSWYQQKPGKAPKLLIYEASKLTSGVPSRFSGSGSGTDFTLTISSLQPEDFATYYCGGGYSSISDTTFGGGTKVEIK
notes: as for B1
Regarding B18, the dissociation constant Kd was 6.54 nM, the koff stood at 0.000351 s⁻¹ and the kon came out at 53700 M⁻¹ s⁻¹.

(Values after US20190144529A1 (UCB, published 2019).)
